test: label from the status in PepcDB records

Sequence	protein production
MSDIIDEVISSFKTSSIFINREYLLPDYIPDELPHREDQIRKIASILAPLYREEKPNNIFIYGLTGTGKTAVVKFVLSKLHKKFLGKFKHVYINTRQIDTPYRVLADLLESLDVKVPFTGLSIAELYRRLVKAVRDYGSQVVIVLDEIDAFVKKYNDDILYKLSRINSEVNKSKISFIGITNDVKFVDLLDPRVKSSLSEEEIIFPPYNAEELEDILTKRAQMAFKPGVLPDNVIKLCAALAAREHGDARRALDLLRVSGEIAERMKDTKVKEEYVYMAKEEIERDRVRDIILTLPFHSKLVLMAVVSISSEENVVSTTGAVYETYLNICKKLGVEAVTQRRVSDIINELDMVGILTAKVVNRGRYGKTKEIGLAVDKNIIVRSLIESDSRFADLWS	failed
MSDIIHLLPDSVANQIAAGEVIQRPASVIKELVENAIDADAQNIHVLVTDAGKTCIQIIDDGKGMSETDARLSFERHATSKIREAADLFALRTMGFRGEALASIAAVAQVELKTRLESEELGTKLVIAGSKVESQEAVSCSKGSNFSVKNLFFNVPARRKFLKANSTELSNILAEFERIALVHPEVAFSLYSNDSELFNLPVSPLRQRILAIFGKKLNQQLLNIEVNTTMVKISGYIAKPETARKKGAHQYFFVNGRYMRHPYFHKAVMEAYEQLIPVGEQVSYFIYFEVDPANIDVNIHPTKTEIKFENEQAIWQILSASVKESLGKFSAIPSIDFDTEDMPDIPAFEQNLPPAPPKIHYNSDFNPFKVSSGGSGGGSYSRPKVEWEGLYGGLTKASKMNEPQQEPEMDWENSPFEEEPMVAEEKTISAVSAASSTFSSASSTLYANESVIEKGNLHLQFKGRFILTSVKSGLMLIDQHRAHIRVLFDRYMVQIKQKQGVSQGVLFPEILQLPASEAAVLQGIMDDLSAVGFDLSDLGGGSYAINGIPSGIEGLNPVELVRNMLHTAMEKGNDVKEEIQNILALTLARAAAIVYGQVLSNEEMVSLVDSLFACPSPNYTPDGKTVLTTIKEEDIEKLFK	failed
MSDILYSLLISAFLGLAHGLDADHIANVRIFKSVKKIFEFSLFHSAGFLIIAIPLSLLSLVTILEFPLLITSYSIGLLVSGLLLYGTVKGKELEIEPKRFGLLQGALVISPSKLIVLILALASESIFYAVLILLVFIVTSIISFMIFSLLNLIPKRFDKIVNIVISLGSIIYILYELITTLMSMH	failed
MSDKYYRSAYMNVDLNAVASNFKVFSTLHPNKTVMAVVKANAYGLGSVKVARHLMENGATFFAVATLDEAIELRMHGITAKILVLGVLPAKDIDKAIQHRVALTVPSKQWLKEAIKNISGEQEKKLWLHIKLDTGMGRLGIKDTKTYQEVIEIIQQYEQLVFEGVFTHFACADEPGDMTTEQYQRFKDMVNEAIKPEYIHCQNSAGSLLMDCQFCNAIRPGISLYGYYPSEYVQQKVKVHLKPSVQLIANVVQTKTLQAGESVSYGATYTATDPTTIALLPIGYADGYLRIMQGSFVNVNGHQCEVIGRVCMDQTIVKVPDQVKAGDSVILIDNHRESPQSVEVVAEKQHTINYEVLCNLSRRLPRIYHDGDQRFVTNELLK	not failed
MSDLKSLATKFASDHESGKLLVLPTVWDTWSAGLVEEAGFSGLTIGSHPVADATGSSDGENMNFADYMAVVKKITSAVSIPVSVDVESGYGLSPADLIAQILEAGAVGINVEDVVHSEGKRVREAQEHADYIAAARQAADVAGVDVVINGRTDAVKLGADVFEDPMVEAIKRIKLMEQAGARSVYPVGLSTAEQVERLVDAVSVPVNITAHPVDGHGAGDLATLAGLGVRRVTFGPLWQKWLAATSAQQLKGWA	not failed
MSDLTKVFIAPEEIVNFLKKNMQLKEVYQKILFQRLILQVAEARGITVTTEEIEAEANRQRREKRLEKAADTMAWLADQLASPEDWEMGIRDRLLSQKLANFLFADKVEAFFIQNQLEFEQVSLYQIIVDSEKLAQEIYYQIEDEEISFYEAAYLYDVDAVRRQRCGYEGKVYRFSLPVNVATVIFRTSPKQLISPLQTEQGYHLFMVEEFIPAELTGERYQEILNNMFNQWLITELNKILN	failed
MSDNNDRMYELEYPSPEVSGQTAGGPTLIVALQGYADAGHAVESSSSHLMDALDHRLIASFNNDELIDYRSRRPVVVIEHNEVTSMDELNLGLHVVRDNDNKPFLMLSGPEPDLRWGDFSNAVVDLVEKFGVENTICLYAAPMTVPHTRPTVVTAHGNSTDRLKDQVSLDTRMTVPGSASLMLEKLLKDKGKNVSGYTVHVPHYVSASPYPAATLKLLQSIADSADLNLPLLALERDAEKVHRQLMEQTEESSEIQRVVGALEQQYDSELERYRNRHPQAVMPGESELPSGDEIGAEFEKFLADLDDQGGSDHKETPEA	not failed
MSDPITLNVGGKLYTTSLATLTSFPDSMLGAMFSGKMPTKRDSQGNCFIDRDGKVFRYILNFLRTSHLDLPEDFQEMGLLRREADFYQVQPLIEALQEKEVELSKAEKNAMLNITLNQRVQTVHFTVREAPQIYSLSSSSMEVFNANIFSTSCLFLKLLGSKLFYCSNGNLSSITSHLQDPNHLTLDWVANVEGLPEEEYTKQNLKRLWVVPANKQINSFQVFVEEVLKIALSDGFCIDSSHPHALDFMNNKIIRLIRYR	failed
MSDPVSYTRKDSIAVISMDDGKVNALGPAMQQALNAAIDNADRDDVGALVITGNGRVFSGGFDLKILTSGEVQPAIDMLRGGFELAYRLLSYPKPVVMACTGHAIAMGAFLLSCGDHRVAAHAYNIQANEVAIGMTIPYAALEIMKLRLTRSAYQQATGLAKTFFGETALAAGFIDEIALPEVVVSRAEEAAREFAGLNQHAHAATKLRSRADALTAIRAGIDGIAAEFGL	not failed
MSDRLANQIAAGEVVQRPASVAKELIENALDAGASSIEVLLKDAGSTLVQVIDDGCGMGPGDAERCFERHATSKLRSVDDLERIRTLGFRGEALASIAAVAQVTLKTKRVEDDAGTLVRVEGGEQVEKRPCAIPNGTSVAVRNLFFNVPARRNFLKTPATELKHLTQTVQSLALANPDTAVRLEHDGHEHYDLPAAPDSDWHAATRARILGLFGGDHEDELVAVEDESSDLRLRGFVGAPSFHRKTRGEQFLFVNGRAVTDRYLSHAVKKAYGELVPDGAFPFFALFLAMNPERVDVNVHPQKEEVKFDDQSGIYGFLRSAVRRALGRVHVSPQMDDGDDEADNEEDSPGPESDGTGSGGHAVSGDGTSSPRPTPTSFQPQRSSGDATDSSGRSSSGPSPQSPKPRPENPSVSPGDQSDALYRRPDGGDESSPGDAPASPPHREGGSSSTSAADEAERSGRRPVWGLHDTYVVTPTETGMMLVDQRAAHLRVLYERARAHLRDQQGASQRLLFPHTVDLSPAEVELLDELRDDLDALGFELERLSGRTVSVRGVPADVPDGNEDTILEELLEQYRSAQDAVEDERREHLAKTMAQRSAVDRGQPLSEEERRALLDDLFDCEMPYADPTGTPTIVKLSMEELADRFGR	failed
MSDRRAPLVLEVDGVRHPLTPPGLTIGRGSDADIRINDPGISRLHARINVWPQGNDIGLSIEDLDSTNGVTVNGVKVTSTELGDGSRIEIGSTRMLVHSPTRILEHHHHHH	failed
MSDSGRADALLAELPRDGRGRLKVFLGAAPGVGKTYAMLQAAHSQLRQGVKVLAGVVETHGRAETEALLSGLPQQPLVRSEYRGVLLEEMDLDGLLKAKPKLVLVDELAHSNAPGSRHAKRWQDIQELLAAGIDVFTTVNVQHLESLNDQVRGITGVQVRETLPDWVLQEAYELLLVDLPPRELLERLRDGKVYVPEQARAAIDAFFTQTNLTALRELAMQTAAAQVDNDLAQGYRQLGQAAPAVRGRLLVGIDGDAQAERLVRHASRVAQRRHLPWSLVHVDNGRLRDEQARLRLQAAQQLAERLGGEVVLLRAGEVAKTLIQHAAERRASLLLVGQSRRRWRRRWFGGGLAARLLRNADGLEINVLDSEPQPHQPGLRVKHSLIWFDYVLAVLATLLASALAWGVASVLPLPNISLVFLAAVLLVAVRSSLGPALACAALSFLSYDFLFIPPNFSLAIQREEDVLTLLFFLLMAALTGNLAARQRRQLQALRDTQEETGELLDLSRKLTAATDRQAVISAAAQHLNGRDELRVCLINRDGQGGWKVETGGSPQFSEAERAAADWAWQHDQPAGLGTGTLPFGRWWWWPLSVDDGPLGLLGVCPREGEEFSGQRRRLLTALSQPLAQALARARLAEDLEAARLHGETEQLRSALLASVSHDLRTPLTSMRGSIDSLLALGEAIPLEDRRELLEGTRDEAERLDRYIQNLLDMTRLGHGALKLARDWVAPGDIVGSALNRLRAVLAPLQVATELPADLPLLYVHAALIEQALVNVLENAARFSPLQGHLQLKVSASEQELSFAVSDEGPGIPEDERAKIFDMFYTAARGDRGGQGTGLGLAICQGMVGAHGGHISVAEGIGGKGTCITLHLPLQTQPELESDL	failed
MSDSLRIIFAGTPDFAARHLGALLSSQHKIVGVFTQPDRPAGRGNKLTPSPVKILAEHHGIPVFQPKSLRPEENQHLVADLNADIMVVVAYGLILPAAVLAMPRLGCINVHGSLLPRWRGAAPIQRSVWAGDEKTGITIMQMDIGLDTGAMLHKIECAIQPEDTSATLYDKLAQLGPQGLLITLQQLAAGTALAEVQNETQATYAEKLSKEEAKLDWTLSATQLERCIRAFNPWPVSYFIVDEQPIKVWQAQVLPAGEDAEPGTIIHADKHGIQVATADGVLNITQLQPAGKKAMSAADLLNSRREWFIPGSQLV	not failed
MSDSPRPSSRPDFWDVRYERDRHLFGAEPNAFVKAEAHRLPPESEVVEVGAGEGRTAAWLAREHGHRVTAVDFSETALKTAQERAEAEHLRLDTVRADVRTWRPDRQWDAAVVTFLQLLPDERPRLYRLLKNSVRSGGWLLAEWLRPAHLTGPYDRMGPSRADRMVPVDEVRRAFADEHLASVEAVDVHLQEGPHLTGDAAVVRGIVQAGAS	failed
MSDSSPTINFINFNQTGTCISLGTSKGFKIFNCEPFGKFYSEDSGGYAIVEMLFSTSLLALVGIGDQPALSPRRLRIINTKKHSIICEVTFPTSILSVKMNKSRLVVLLQEQIYIYDINTMRLLHTIETNPNPRGLMAMSPSVANSYLVYPSPPKVINSEIKAHATTNNITLSVGGNTETSFKRDQQDAGHSDISDLDQYSSFTKRDDADPTSSNGGNSSIIKNGDVIVFNLETLQPTMVIEAHKGEIAAMAISFDGTLMATASDKGTIIRVFDIETGDKIYQFRRGTYATRIYSISFSEDSQYLAVTGSSKTVHIFKLGHSMSNNKLDSDDSNMEEAAADDSSLDTTSIDALSDEENPTRLAREPYVDASRKTMGRMIRYSSQKLSRRAARTLGQIFPIKVTSLLESSRHFASLKLPVETNSHVMTISSIGSPIDIDTSEYPELFETGNSASTESYHEPVMKMVPIRVVSSDGYLYNFVMDPERGGDCLILSQYSILMD	failed
MSDVPHLRFPEFSGEWEEHTLSEYLEFKNGLNPDAKRIGSGLPFISVMDILSEGVINYDNIRGKVNATEKEIECFGVKDGDLLFQRSSETLEDVGRANVYMDNRTAIYGGFVIRGRKIGNYDPLFFKYLLATPLARKRTCRMGAGAQHFNIGQEGLSKISLYFPSIEEQRKIAEFLSLIDERIATQNKIIEDLKKLKSAISLNVLHSDKWEQFKIKDIAQIGRGRVISSIEIGQQKSPTYPVYSSQTSNDGIMGYLDDYMFEGEYISWTTDGANAGTVFYRNGKFNCTNVCGLLKLRKEFDTHFVSLVLAEATKKYVSINLANPKLMNNTMGNIQIRLPKLEEQKRISIVFRVLQRLWTVHNSLLTEYTKQEQYLLSQMFILEHHHHHH	failed
MSDWTDGYVAEIDYTHGFYRELTPAHLRFCLLSRGLRAPEEDAGVSYCELGFGQGVTLNIVAATHPLASVWGTDFNPSHAAAARQLSLDGGTANTAFGDDSFEEFLAREDLPTFDFIVLHGIYSWISAENRAVIGRFLRRRLKVGGVVYISYNTLPGWAAIMPLRALMIDHAKAERAGMTERVDKALAFARTLAEGKAGYFTANPAVAPRLEKMATMSRNYLAHEYFNRDWTPLYHADVVRELTAAKLSFAASAHVTDLIDVVALSAPGREMLAAVNDPLFRETLRDYIVNQQFRRDIFTRGALRLTPLEQIEGLRAQRLALIVPRATIPEKATFPIGTTDLKPEIYGPFFDRLDKGPITLADLAAAEPALAPLPLATLHQAALVAISQGWVAPCPEAAGEGARRKATKRFNAAVLERARRSADLTVLASPVLGGGLGVDRIQQLFLLARAEKHPDPASFVWGILSSQGQRLVKEGKPLEDVDQNMAELRLRAQTFTDSFLPLYDRLGIV	failed

Source: a protein production outcome set (Wang et al. 2014)
